Results: patent publication US10918726B2, “Carbosilane dendrimer and aggregatable carrier obtained using said dendrimer for drug delivery system” (Quarrymen & Co. Inc., priority 2014, dated 2021)

Assay: Particle size of raw materials and micelles by dynamic light scattering (DLS, ZETASIZER NANO-S)
Type: physicochemical
Details: for particle size: DLS after overnight incubation at 37° C., measured at 25° C.; for Particle diameter peak by number / Particle diameter peak by scattering intensity / Zeta Average (average particle diameter): Table 1, raw materials and products in PBS, measured 5 times at 25° C.
Experimental: After vortex, the solution was stood at 37° C. for overnight incubation to bind GFP and the silole dendrimer, and subsequently to form the micelles. The incubation time for this experiment was about 16 to 18 hours. The properties of the micelle particles in the solution were measured by using dynamic light scattering method (DLS; Dynamic light scattering).
Also, the particle size in the reaction mixture was measured at 25° C. by using ZETASIZER NANO-S(manufactured by Malvern Instrument Ltd.) with a laser beam wavelength of 532 nm.
It was measured whether the micelles including each drug are formed in the sample to which each model drug is added; and if the micelles including the drug are formed, their particle size were measured by using the dynamic light scattering method. Here, DiI, Oil orange SS, and goat anti mouse IgG-Alexa 610 were used as drug models.
The particle properties of the target peptide sequence-binding micelle were measured by a dynamic light scattering method as the same as used in the example 1 (see FIG. 11). […] As a result, the particles having the particle size of about 100 nm to 200 nm were confirmed as the same as those in the example 1.

Molecule | particle size | Particle diameter peak by number | Particle diameter peak by scattering intensity | Zeta Average (average particle diameter)
20 μM GFP only: green fluorescent protein, SEQ ID NO: 1, cysteine at position 251, cysteine 60 replaced with serine | about 4 nm | 4.682 nm | 838.8 nm | 860.7 nm
C[Si](C)(CCC[Si](CCCBr)(CCCBr)CCCBr)CCC[Si](CCCBr)(CCCBr)CCCBr [50 μM Silole only] | about 650 nm | 649.3 nm | 664.6 nm | 894.5 nm
